Results taken from paper PMC8951219.

System: MSA-R2c (p57, major soluble antigen, IPT-domain construct) (Renibacterium salmoninarum)
Test: plate binding assay with immobilized protein, bound aptamer quantified by qPCR
Conditions: 20 mM Tris-HCl pH 7.4, room temperature, 1 h; wells coated with 50 uL of 2.5 uM protein, 1% BSA block; aptamer 0.0205-41 nM, heated at 95 C for 5 min; no added …

Sequence: ATGATACGGCGACCACCTAACCATTTTCACTGTTTGTTTAATATATATAGTTTTATGGTATAGCGTCGTGTAGGGAAAGA [Aptamer-4]
- Kd: 3 nM
